In patent US20260226191A1 (SHANDONG SIMCERE BIOPHARMACEUTICAL, published 2026):

Columns and labels:
[1] = biological target: T1, monkey MUC17 on FlpinCHO-cynoMUC17-D1 cells (monkey); test: FACS on FlpinCHO-cynoMUC17-D1 cells, MFI
T1 construct: On cells; also called recombinant cells overexpressing monkey MUC17

[2] = biological target: T2, human MUC17 on endogenous tumor cells (NUGC4, SNU16, ASPC1) (human); test: FACS on SNU16 cells (endogenous human MUC17), MFI
T2 construct: whole, on cells; also called MUC17-positive tumor cells

[3] = biological target: T3, Cyno MUC17 ECD3577-mFc (mFc-tagged cynomolgus monkey MUC17 protein extracellular region fusion protein) (cynomolgus monkey); test: SPR (Biacore 8K), antibody captured on Protein A, antigen injected, 25 C, 1:1 model
T3 construct: also called monkey MUC17-mFc protein; Monkey MUC17-ECD3577-mFc protein
T3 chain: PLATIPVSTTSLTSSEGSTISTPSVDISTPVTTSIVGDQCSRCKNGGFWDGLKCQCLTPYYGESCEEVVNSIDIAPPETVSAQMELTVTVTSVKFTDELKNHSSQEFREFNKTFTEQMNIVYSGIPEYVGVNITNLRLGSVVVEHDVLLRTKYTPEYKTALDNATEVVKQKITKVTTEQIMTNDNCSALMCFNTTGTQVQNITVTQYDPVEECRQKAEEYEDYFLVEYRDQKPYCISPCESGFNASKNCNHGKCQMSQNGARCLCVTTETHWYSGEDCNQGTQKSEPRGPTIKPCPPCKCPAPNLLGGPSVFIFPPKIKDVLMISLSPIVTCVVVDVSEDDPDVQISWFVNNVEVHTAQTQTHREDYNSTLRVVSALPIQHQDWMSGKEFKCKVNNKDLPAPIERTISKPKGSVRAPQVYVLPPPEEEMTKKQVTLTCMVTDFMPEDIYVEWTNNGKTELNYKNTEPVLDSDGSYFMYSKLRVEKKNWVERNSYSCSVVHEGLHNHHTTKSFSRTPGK

[4] = biological target: T4, Human MUC17 ECD4131-his (His-tagged human MUC17 protein extracellular region fusion protein) (human, UniProt Q685J3 4131-4393); test: as above
T4 construct: also called human MUC17-his protein; Human MUC17-ECD(4131-4393)-His protein

[5] = biological target: T2, human MUC17 on endogenous tumor cells …; test: FACS on AspC-1 cells (endogenous human MUC17), MFI
[6] = biological target: T3, Cyno MUC17 ECD3577-mFc (mFc-tagged …); test: ELISA, cynomolgus MUC17-mFc coated on the plate, OD450
[7] = biological target: T2, human MUC17 on endogenous tumor cells …; test: FACS on NUGC4 cells (endogenous human MUC17), MFI
[8] = biological target: T4, Human MUC17 ECD4131-his (His-tagged …); test: ELISA, human MUC17-his coated on the plate, OD450
[9] = biological target: T5, human cell surface CD3 (Jurkat cells, human PBMCs) (human, UniProt P07766 23-207); test: FACS on naive human PBMCs (CD3), MFI
T5 construct: whole, on cells; CD3 is a multi-chain complex on the cell
T5 sequence (P07766 23-207): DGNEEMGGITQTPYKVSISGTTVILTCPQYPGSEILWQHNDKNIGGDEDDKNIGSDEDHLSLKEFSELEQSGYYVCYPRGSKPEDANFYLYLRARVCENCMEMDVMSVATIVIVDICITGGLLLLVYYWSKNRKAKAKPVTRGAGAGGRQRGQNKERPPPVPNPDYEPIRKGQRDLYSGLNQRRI

[10] = biological target: T6, human MUC17 fragment on FlpinCHO-huMUC17-D1 cells (human); test: FACS on FlpinCHO-huMUC17-D1 cells, MFI
T6 construct: On cells; also called cells overexpressing human MUC17

[11] = biological target: T2, human MUC17 on endogenous tumor cells …; test: cell-based or functional assay

EC50 (read off the curve) [1]: ~8 nM | EC50 (read off the curve) [2]: ~0.2 nM | Kd [3]: 7.11 nM | koff [3]: 0.00031 s⁻¹ | kon [3]: 43600 M⁻¹ s⁻¹ | Kd [4]: 0.378 nM | koff [4]: 0.000138 s⁻¹ | kon [4]: 364000 M⁻¹ s⁻¹ | EC50 (read off the curve) [5]: ~0.2 nM | EC50 (read off the curve) [6]: ~0.07 nM | EC50 (read off the curve) [7]: ~0.5 nM | EC50 (read off the curve) [8]: ~0.05 nM | EC50 (read off the curve) [9]: ~50 nM | EC50 (read off the curve) [10]: ~1 nM
B1: Bis 58 (bispecific antibody, human IgG1, kappa)
heavy: EVQLVESGGGVVQPGRSLRLSCAASGFTFTDYYMSWVRQAPGKGLEWVAMSRNKAKGHTIEYSSSVKGRFTISRDNSKNTLYLQMNSLRAEDTAVYYCARDTYESYDGYFDVWGQGTTVTVSSASTKGPSVFPLAPSSKSTSGGTAALGCLVKDYFPEPVTVSWNSGALTSGVHTFPAVLQSSGLYSLSSVVTVPSSSLGTQTYICNVNHKPSNTKVDKKVEPKSCDKTHTCPPCPAPEAAGAPSVFLFPPKPKDTLMISRTPEVTCVVVDVSHEDPEVKFNWYVDGVEVHNAKTKPREEQYNSTYRVVSVLTVLHQDWLNGKEYKCKVSNKALPAPIEKTISKAKGQPREPQVYTLPPSREEMTKNQVSLWCLVKGFYPSDIAVEWESNGQPENNYKTTPPVLDSDGSFFLYSKLTVDKSRWQQGNVFSCSVMHEALHNHYTQKSLSLSPG
light: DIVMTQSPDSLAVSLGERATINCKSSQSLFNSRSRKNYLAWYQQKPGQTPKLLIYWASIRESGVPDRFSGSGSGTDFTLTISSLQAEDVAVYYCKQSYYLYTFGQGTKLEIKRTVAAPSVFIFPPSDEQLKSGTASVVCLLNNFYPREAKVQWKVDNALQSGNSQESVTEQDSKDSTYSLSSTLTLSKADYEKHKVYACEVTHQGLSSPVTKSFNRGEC
chain: EVQLVESGGGLVQPGGSLRLSCAASGFPSSRGTMAWFRQAPGKEREGVAFINSDGRTSYAESVKGRFTISRDNAKNSLYLQMNSLRAEDTAVYYCAASLLYLMTVNAAAYPYWGQGTMVTVSSGGGDKTHTCPPCPAPEAAGAPSVFLFPPKPKDTLMISRTPEVTCVVVDVSHEDPEVKFNWYVDGVEVHNAKTKPREEQYNSTYRVVSVLTVLHQDWLNGKEYKCKVSNKALPAPIEKTISKAKGQPREPQVYTLPPSREEMTKNQVSLSCAVKGFYPSDIAVEWESNGQPENNYKTTPPVLDSDGSFFLVSKLTVDKSRWQQGNVFSCSVMHEALHNHYTQKSLSLSPG
notes: Three-chain asymmetric MUC17xCD3 bispecific
PBMC-mediated in vitro tumor cell killing EC50, ASPC-1 [11]: 0.0194 nM | PBMC-mediated in vitro tumor cell killing EC50, NUGC4 [11]: 0.0271 nM
